# Laboratory results reported in patent publication US20100086958A1, “NOVEL ENZYME” (priority 2008, published 2010).
# Where two headings read alike, the source gives them in different places.
# Legend:
# [1] = Steady state kinetics for NADP^+ (FDH-catalysed formate oxidation); assay type: biochemical; conditions: for Km / kcat NADP^+: cofactor NADP^+, 0.18M formate
# Procedure: (§1) BcenFDH1 (Bsp184FDH) and BspFDH2 (Bsp383FDH) catalyzed oxidation of formate to CO2 was monitored by UV/Vis spectrophotometry in a 96-well plate format. A series of eight solutions of formate (0-200 mM) were prepared by successive dilutions of a stock solution of 0.5 M sodium formate in 0.1 M sodium phosphate buffer, pH 7.0. From this series, 170 μL was transferred into wells of the 96-well plate. 10 μL of the FDHs from a stock solution (64.1 μM for BcenFDH1 (Bsp184FDH) and 78.0 μM for BspFDH2 (Bsp383FDH)) were added into each well and equilibrated for 3 min at 30° C. The reaction was initiated by addition of 20 μL of NAD^+ or NADP^+ solution from a freshly prepared stock (10 mM) using an 8-channel pipette. The plate was then immediately placed into the plate reader. The plate was shaken for 5 s to ensure thorough mixing, and then time-based measurements were recorded every 15 s for 10 min. The rate of formate oxidation was calculated using an extinction coefficient of 3.38 mM^−1 (for 200 μL), which was determined using NADH standards. Km and Vmax values were obtained by non-linear regression to the Michaelis-Menten equation (Eq.1 below) using Origin v7 (Microcal Software Inc.).
# (§2) Similar procedure were used for determination of Michaelis-Menten parameters for NAD^+ and NADP^+. A series of eight solutions of cofactor (0-75 mM) were prepared by successive dilutions of stock solutions. […] of sodium formate solutions (180 mM in well) were transferred into wells of the 96-well plate. 10 μL of the FDHs from a stock solution (64.1 μM for BcenFDH1 (Bsp184FDH) and 78.0 μM for BspFDH2 (Bsp383FDH)) were added into each well and equilibrated for 3 min at 30° C. The reaction was initiated by addition of 20 μL of NAD^+ or NADP^+ solutions using an 8-channel pipette. The plate was then immediately placed into the plate reader. The plate was shaken for 5 s to ensure thorough mixing, and then time-based measurements were recorded every 15 s for 10 min. The rate of formate oxidation was calculated using an extinction coefficient of 3.38 mM^−1 (for 200 μL), which was determined using NADH standards. Km and Vmax values were obtained by non-linear regression to the Michaelis-Menten equation as before.
# [2] = Steady state kinetics for NAD^+ (FDH-catalysed formate oxidation); assay type: biochemical; conditions: for Km / kcat NAD^+: cofactor NAD^+, 0.18M formate
# Procedure: as §1, §2
# [3] = Steady state kinetics for formate oxidation; assay type: biochemical
# Procedure: as §1
# [4] = Assay of enzyme activity (specific activity, U/mg); assay type: biochemical; conditions: unit = μmol formate oxidized per min in the presence of co-factor; This work
# Procedure: The reaction was initiated by addition of NAD^+. The total volume of the reaction mixture was 1 mL. Specific activity (U/mg enzyme) was defined as number of μmols of product formed per mg enzyme per minute.
# [5] = pH profile determination of FDH-catalysed formate oxidation; assay type: biochemical; conditions: pHs as low 4 or as high as 10.5
# Procedure: The pH profiles for BcenFDH1 (Bsp184FDH) and BspFDH2 (Bsp383FDH) catalyzed formate oxidation, shown in FIG. 13(a) and (b), were investigated by Uv/Vis spectrophotometry in a 96-well plate format. […] From this series, 170 μL was transferred into wells of the 96-well plate. 10 μL of the FDHs from a stock solution solution (64.1 μM for BcenFDH1 (Bsp184FDH) and 78.0 μM for BspFDH2 (Bsp383FDH)) were added into each well and equilibrated for 3 min at 30° C. The reaction was initiated by addition of 20 μL of NAD^+ solution from a freshly prepared stock (10 mM) using an 8-channel pipette. The plate was then immediately placed into the plate reader. The plate was shaken for 5 s to ensure thorough mixing, and then time-based measurements were recorded every 15 s for 10 min. The rate of formate oxidation was calculated using an extinction coefficient of 3.38 mM^−1 (for 200 μL).
# [6] = Thermal stability study (remaining activity after incubation); assay type: physicochemical
# Procedure: FIGS. 19 and 20—show the effect of temperature on the stability of the Bsp184FDH and Bsp383FDH enzymes. In FIG. […] In FIG. 20 (1) Bsp184FDH (2.1 mg/mL) and (2) Bsp383FDH (1.5 mg/mL) were incubated at 60° C. and 70° C. for 48 hours period in a similar way. Remaining activities were assayed under standard assay conditions and were expressed as the percentage of activities.
# Thermal stability for purified wild-type BcenFDH1 (Bsp184FDH) and BspFDH2 (Bsp383FDH) catalyzed formate oxidation were investigated by Uv/V is spectrophotometry in a 96-well plate format. The results are illustrated in FIGS. 19 and 20. […] In addition, time based-thermal stability for purified wild-type BcenFDH1 (Bsp184FDH) and BspFDH2 (Bsp383FDH) catalyzed formate oxidation were also investigated at 60° C. and 70° C. over 48 hours in a similar way. The samples were spun down briefly to remove any precipitations before use. 10 μL of heat-treated BcenFDH1 and BspFDH2 were added into each well and equilibrated for 3 min at 30° C. after adding 170 μL of 200 mM sodium formate (dissolving in 50 mM sodium phosphate buffer, pH 7.0.) The reaction was initiated by addition of 20 μL of NADP^+ solution from a freshly prepared stock of 20 mM using an 8-channel pipette. The plate was then immediately placed into the plate reader. The plate was shaken for 5 seconds to ensure thorough mixing. Time-based measurements were recorded every 10 s for 10 min. The rate of formate oxidation was calculated using the absorption coefficient of 3.38 mM^−1 (for 200 μL).
# [7] = cited from earlier work; for Km: read-out: Km NAD^+
# [8] = cited from earlier work
# [9] = Serov et al. (2002), cited from earlier work; for Km: read-out: Km NADP^+
# [10] = 0.25 M formate, Serov et al. (2002)
# [11] = 0.5 M formate, Serov et al. (2002)
molecule,measurement,setting,value
"Bsp184FDH: wild type FDH from Burkholderia cenocepacia PC184, Seq ID No: 2, C-terminal His-tagged (protein, listed as Burkholderia cenocepacia, C-terminal His tag) MATVLCVLYPDPVDGYPPRYVRDTIPVITHYADGQTAPTPAGPPGFRPGELVGSVSGALGLRGYMEAHGHTLIVTSDKDGPDSEFERRLPEADVVISQPFWPAYLSAERIARAPKLKLALTAGIGSDHVDLDAAARARITVAEVTGSNSISVAEHVVMTTLALVRNYLPSHAVAQQGGWNIADCVSRSYDVEGMHFGTVGAGRIGLAVLRRLQPFGLQLHYTQRHRLDASIEQALALTYHADVASLASAVDIVNLQIPLYPSTEHLFDAAMIARMKRGAYLINTARAKLVDRDAVVNALTSGHLAGYGGDVWFPQPAPADHPWRTMPFNGMTPHISGTSLSAQARYAAGTLEILQCWFDGRPIRNEYLIVDGGTLAGTGAQSYRLT",Km,[1],1.1 ± 0.1 mM
same,kcat NADP^+,[1],3.07 ± 0.083 s⁻¹
same,"cofactor preference for NADP^+, times greater than those of known FDHs such as CmetFDH",[1]; relative to CmetFDH,10^6 times
same,Km,[2],15 ± 4 mM
same,kcat NAD^+,[2],0.567 ± 0.12 s⁻¹
same,kcat,[3]; formate oxidation with NADP^+,2.2073 ± 0.2553 s⁻¹
same,Km,[3]; formate oxidation with NAD^+,99.2 ± 7.11 mM
same,kcat,[3]; formate oxidation with NAD^+,0.34 ± 0.0123 s⁻¹
same,activity with NADP^+,[4],3.12 U/mg
same,activity with NAD^+,[4],0.48 U/mg
same,activity at extreme pH,[5],highly active
same,temperature at which the enzymes denature,[6],80 °C
same,activity lost upon incubation,[6]; 55° C. for 2 hours,no activity was lost
same,stability at room temperature,[6]; room temperature for weeks,stable
"PseFDH: FDH from Pseudomonas sp. 101, Seq ID No: 3 (protein, listed as Pseudomonas sp.) MAKVLCVLYDDPVDGYPKTYARDDLPKIDHYPGGQTLPTPKAIDFTPGQLLGSVSGELGLRKYLESNGHTLVVTSDKDGPDSVFERELVDADVVISQPFWPAYLTPERIAKAKNLKLALTAGIGSDHVDLQSAIDRNVTVAEVTYCNSISVAEHVVMMILSLVRNYLPSHEWARKGGWNIADCVSHAYDLEAMHVGTVAAGRIGLAVLRRLAPFDVHLHYTDRHRLPESVEKELNLTWHATREDMYPVCDVVTLNCPLHPETEHMINDETLKLFKRGAYIVNTARGKLCDRDAVARALESGRLAGYAGDVWFPQPAPKDHPWRTMPYNGMTPHISGTTLTAQARYAAGTR",kcat NAD^+,[7]; data from Serov et al. (2002),10.0 ± 0.6 s⁻¹
same,Km,[7]; data from Serov et al. (2002),0.06 ± 0.005 mM
same,"formate oxidation, times more effectively with NAD^+ than with NADP^+",[8]; Tishkov et al. (1991),2400 times
same,activity with NAD^+,"[8]; unit = μmol formate oxidized per min, literature",6-8 U/mg
"CmetFDH: NADH-dependent wild-type FDH from Candida methylica, Seq ID No: 6 (protein, listed as Candida methylica) MKIVLVLYDAGKHAADEEKLYGCTENKLGIANWLKDQGHELITTSDKEGETSELDKHIPDADIIITTPFHPAYITKERLDKAKNLKSVVVAGVGSDHIDLDYINQTGKKISVLEVTGSNVVSVAEHVVMTMLVLVRNFVPAHEQIINHDWEVAAIAKDAYDIEGKTIATIGAGRIGYRVLERLLPFNPKELLYYDYQALPKEAEEKVGARRVENIEELVAQADIVTVNAPLHAGTKGLINKELLSKFKKGAWLVNTARGAICVAEDVAAALESGQLRGYGGDVWFPQPAPKDHPWRDMRNKYGAGNAMTPHYSGTTLDAQTRYAEGTKNILESFFTGKFDYRPQDIILLNGEYVTKAYGKHDKK",Km,[1],7 ± 1.4 mM
same,kcat NADP^+,[1],0.005 ± 0 s⁻¹
same,"formate oxidation, times more effective with NAD^+ than with NADP^+",[2],1.7×10^4 times
same,Km,[2],0.2 mM
same,kcat NAD^+,[2],1.67 ± 0.033 s⁻¹
same,Km,[3]; formate oxidation with NAD^+,8.29 ± 1 mM
same,kcat,[3]; formate oxidation with NAD^+,6.9875 ± 0.2928 s⁻¹
"D197A/Y198R SceFDH: D197A/Y198R mutant of S. cerevisiae FDH, data from Serov et al. (2002) (protein, UniProt Q08911 1-376, looked up, variant D197A Y198R) Formate dehydrogenase 1: MSKGKVLLVLYEGGKHAEEQEKLLGCIENELGIRNFIEEQGYELVTTIDKDPEPTSTVDRELKDAEIVITTPFFPAYISRNRIAEAPNLKLCVTAGVGSDHVDLEAANERKITVTEVTGSNVVSVAEHVMATILVLIRNYNGGHQQAINGEWDIAGVAKNEYDLEDKIISTVGAGRIGYRVLERLVAFNPKKLLYYARQELPAEAINRLNEASKLFNGRGDIVQRVEKLEDMVAQSDVVTINCPLHKDSRGLFNKKLISHMKDGAYLVNTARGAICVAEDVAEAVKSGKLAGYGGDVWDKQPAPKDHPWRTMDNKDHVGNAMTVHISGTSLDAQKRYAQGVKNILNSYFSKKFDYRPQDIIVQNGSYATRAYGQKK",kcat NADP^+,[9]; 0.25 M formate,0.13 ± 0.01 s⁻¹
same,Km,[9]; 0.25 M formate,4.5 ± 0.5 mM
same,kcat NADP^+,[9]; 0.5 M formate,0.16 ± 0.02 s⁻¹
same,Km,[9]; 0.5 M formate,7.6 ± 0.9 mM
same,kcat NAD^+,[7]; [10],0.095 ± 0.01 s⁻¹
same,Km,[7]; [10],7.6 ± 0.8 mM
same,kcat NAD^+,[7]; [11],0.12 ± 0.02 s⁻¹
same,Km,[7]; [11],8.4 ± 0.9 mM
